Where a SMILES comes first, the peptide text is derived from it. Bridges are numbered along the chain shown (N, C = ends). Where no end group is shown, it is not given here.
Legend:
[1] = molecular target: T1, BLyS (Homo sapiens, UniProt Q9Y275); assay: Competitive displacement ELISA (biotinylated miniBR3), peptide-PEG conjugates; format: binding
T1 construct: A DNA fragment encoding human BAFF (residues 82-285) was cloned; His-tag (with thrombin cleavage site) (N, cleaved yes); made in house; host or cells: E. coli BL21 (DE3)
T1 sequence (Q9Y275 82-285): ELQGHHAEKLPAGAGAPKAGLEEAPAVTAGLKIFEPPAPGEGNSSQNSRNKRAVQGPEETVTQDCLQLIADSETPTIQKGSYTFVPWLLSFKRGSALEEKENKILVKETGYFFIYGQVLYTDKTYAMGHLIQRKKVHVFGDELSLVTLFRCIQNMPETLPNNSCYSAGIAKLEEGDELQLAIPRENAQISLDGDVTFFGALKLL
Procedure: The plate was washed with PBS and blocked with 1% skim milk in PBS. […] After washing with PBS/0.05% Tween, 100 μl well of each dilution was transferred and incubated for 1 hour at room temperature. The plate was washed with PBS/0.05% Tween and incubated 15 min with 100 μl/well of 0.1 U/ml Streptavidin-POD (Boehringer Mannheim) in PBS/0.05% Tween.

[2] = Expected serum IgG and IgM in responding human patients; format: in vivo; settings: human patients responding to treatment
[3] = tested on: B cells; assay: B cell depletion by anti-CD20 mAb, BR3-Fc or combination in hCD20+ mice (FIG. 29, 30); format: in vivo, mouse
Procedure: FACS analysis was performed on of spleen, blood, lymph node B cells (gated on CD21^+CD23^+).
(§1) Mice were treated with control IgG2a, BAFFR/BR3-Fc (100 μg/mouse IP daily for 12 days), anti-hCD20 mAb (100 μg/mouse IP on day 9) or the combination of BAFFR/BR3-Fc and anti-hCD20 mAb (same dosing as single treatment groups). B220^+ splenocytes were isolated on day 13 and stained for CD21 and CD23. N=5 mice/group.
In the Experimental Examples, the BR3-Fc or BAFFR/BR3-Fc used is hBR3-Fc of SEQ ID. NO. 2. […] Each group consisted of 4 mice. Two days following the last injection, the mice were sacrificed and analyzed for hCD20^+ B cells. FACS analysis of spleen, blood, lymph node and Peyer's Patches were analyzed for B cell markers (CD21^+CD23^+).
as §1, with “For the experiment shown in FIG. 30, hCD20 Tg+ mice” for “Mice”, “mice/group. […] The mice were treated with single doses of 0.1 mg control IgG2a, BAFF/BR3-Fc or anti-hCD20 mAb. Splenocytes were analyzed on day 4. N=5 mice/group.” for “mice/group.”

[4] = molecular target: T2, BAFF/BLyS (Mus musculus, UniProt Q9WU72); settings: lupus-prone mice; cited from earlier work
T2 construct: host or cells: lupus-prone mice
T2 sequence (Q9WU72 127-309 limits assumed): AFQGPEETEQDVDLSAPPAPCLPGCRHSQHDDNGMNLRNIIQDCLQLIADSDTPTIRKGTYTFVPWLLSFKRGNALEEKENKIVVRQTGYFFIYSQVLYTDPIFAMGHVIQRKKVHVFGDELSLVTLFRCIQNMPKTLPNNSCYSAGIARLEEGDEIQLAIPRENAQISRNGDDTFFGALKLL

[5] = Serum IgG and IgM in BR3-Fc treated mice; format: in vivo, mouse
[6] = tested on: lymphoid B cell lines; settings: binds human complement; cited from earlier work
[7] = tested on: T-independent B cell response; assay: T-independent immune response to Streptococcus pneumoniae IV after B cell depletion; format: in vivo, mouse; settings: mAb day 0, S. pneumoniae IV i.v. day 7, response day 11
Procedure: On the 3 panels at the right, the spleen cells were stained for the streptococcus polysaccharide-phosphatidyl choline (the TI antigen). CD138 is a marker for plasma cells.
Next, it was determined whether upon B cell depletion, the mice were able to develop T independent immune response. […] At day 7, the mice were injected i.v. with Streptococcus pneumoniae IV to induce a response to the polysaccharide.

[8] = tested on: B cells; settings: peripheral blood, lymph nodes, bone marrow; cited from earlier work
[9] = molecular target: T3, human BAFF (residues 82-285) (human, UniProt Q9Y275 82-285); assay: phage display selection on BAFF
T3 construct: Coated on plates in the ELISAs; also used biotinylated or free in solution for phage sorting; also called BAFF82-285; BLyS82-285
T3 sequence (Q9Y275 82-285): as the sequence (Q9Y275 82-285) above

[10] = molecular target: T3, human BAFF (residues 82-285); assay: competitive displacement ELISA on BAFF-coated plates, biotinylated miniBR3 as tracer

Molecule | binding result [9] | further results
CC(=O)N[C@@H](CCC(=O)O)C(=O)N[C@H]1CSSC[C@@H](C(=O)NCC(=O)N[C@@H](CC(C)C)C(=O)N[C@@H](CC(C)C)C(=O)N[C@@H](CCCNC(=N)N)C(N)=O)NC(=O)[C@@H]2CCCN2C(=O)[C@H](C(C)C)NC(=O)[C@H](Cc2c[nH]c3ccccc23)NC(=O)[C@H](Cc2c[nH]cn2)NC(=O)[C@H](CCCNC(=N)N)NC(=O)[C@H](C(C)C)NC(=O)[C@H](CC(C)C)NC(=O)[C@H](CC(C)C)NC(=O)[C@H](CC(=O)O)NC(=O)[C@H](Cc2ccccc2)NC1=O [BLyS0048] (Ac-ECFDLLVRHWVPCGLLR-NH2; disulfide 2-13) | – | IC50 ([1]; 3 ng/ml biotinylated miniBR3, four-parameter fit): 14 nM; IC50 ([1]; separate experiment): 15 nM
BR3-Fc: hBR3-Fc immunoadhesin of SEQ ID NO. 2, BAFF antagonist | – | serum IgG and IgM levels [2]: reduction in serum IgG and IgM levels; T2 and follicular B cells in the spleen ([3]; hCD20+ mice): decreases; marginal zone B cells in the spleen ([3]; hCD20+ mice): decreases; mature circulating B cells in the blood and lymph nodes ([3]; hCD20+ mice, 100 micrograms every other day Days 1 through 12): decreases; MZ and T2/FO B cells in spleen (FIG. 30, panel 3) ([3]; treatment for ~2 weeks, 100 μg/mouse IP daily for 12 days, splenocytes day 13): marked decrease; autoimmune serologies, renal pathology and mortality [4]: improved autoimmune serologies, renal pathology and mortality; Serum levels of IgG and IgM [5]: reduced
rituximab [Rituxan] | – | complement-dependent cytotoxicity (CDC) [6]: lyses lymphoid B cell lines through complement-dependent cytotoxicity (CDC); B cell response from the marginal zone and germinal centers of the spleen to T-independent antigen [7]: did not affect the B cell response; B cell depletion [8]: depletes B cells from the peripheral blood, lymph nodes, and bone marrow
ECFDILVGRWVPCGLIH (disulfide 2-13 (inferred)) [SEQ ID NO 116] | binds | –
ECFDHLVRIWVPCTALA (disulfide 2-13 (inferred)) [SEQ ID NO 121] | binds | –
ECFDRLVNAWVDCRLLA (disulfide 2-13 (inferred)) [SEQ ID NO 124] | binds | –
Ac-ECFDLLVRHWVACGLLR-NH2 (disulfide 2-13 (inferred)) [Ac-ECFDLLVRHWVACGLLR-NH2 (BLyS0027)] | – | binding result [10]: binds
ECFDLLVRRWVPCHLIT [SEQ ID NO 115] | binds | –
ECFDRLVRAWVPCTALT (disulfide 2-13 (inferred)) [SEQ ID NO 114] | binds | –
ECFDRLVNGWVPCAVLH (disulfide 2-13 (inferred)) [SEQ ID NO 123] | binds | –
Ac-ECFDLLVRAWVPCSVLK-NH2 (disulfide 2-13 (inferred)) [Ac-ECFDLLVRAWVPCSVLK-NH2 (BLyS0051)] | – | binding result [10]: binds

More lines, main results first:

binding result [9] | Molecule | further results
binds | ECFDTLVNAWVPCNLLD (disulfide 2-13 (inferred)) [SEQ ID NO 122] | –
binds | ECFDPLVRDWVRCDILT (disulfide 2-13 (inferred)) [SEQ ID NO 117] | –
binds | ECFDLLVNDWVPCGAIT (disulfide 2-13 (inferred)) [SEQ ID NO 125] | –
binds | ECFDPLVRVWVPCTVLR [SEQ ID NO 118] | –
binds | ECFDALVHRWVDCAVLG (disulfide 2-13 (inferred)) [SEQ ID NO 127] | –
binds | ECFDSLVRAWVPCGVLS [SEQ ID NO 119] | –
binds | ECFDVLVHRWVPCGLIR [SEQ ID NO 120] | –
binds | ECFDALVRRWVDCSLLR [SEQ ID NO 126] | –

— US20050163775A1, “Combination therapy for B cell disorders” (Genentech, Inc., priority 2003, published 2005)
